Measurements as given in publication PMC8445963.

Target: MYC-tagged Exo70 wild-type (in MTLn3 cells) (UniProt Q9UPT5)
Assay: proximity ligation assay
Conditions: N = 3 experiments

Sequence of UniProt Q9UPT5 (Q9UPT5 whole entry): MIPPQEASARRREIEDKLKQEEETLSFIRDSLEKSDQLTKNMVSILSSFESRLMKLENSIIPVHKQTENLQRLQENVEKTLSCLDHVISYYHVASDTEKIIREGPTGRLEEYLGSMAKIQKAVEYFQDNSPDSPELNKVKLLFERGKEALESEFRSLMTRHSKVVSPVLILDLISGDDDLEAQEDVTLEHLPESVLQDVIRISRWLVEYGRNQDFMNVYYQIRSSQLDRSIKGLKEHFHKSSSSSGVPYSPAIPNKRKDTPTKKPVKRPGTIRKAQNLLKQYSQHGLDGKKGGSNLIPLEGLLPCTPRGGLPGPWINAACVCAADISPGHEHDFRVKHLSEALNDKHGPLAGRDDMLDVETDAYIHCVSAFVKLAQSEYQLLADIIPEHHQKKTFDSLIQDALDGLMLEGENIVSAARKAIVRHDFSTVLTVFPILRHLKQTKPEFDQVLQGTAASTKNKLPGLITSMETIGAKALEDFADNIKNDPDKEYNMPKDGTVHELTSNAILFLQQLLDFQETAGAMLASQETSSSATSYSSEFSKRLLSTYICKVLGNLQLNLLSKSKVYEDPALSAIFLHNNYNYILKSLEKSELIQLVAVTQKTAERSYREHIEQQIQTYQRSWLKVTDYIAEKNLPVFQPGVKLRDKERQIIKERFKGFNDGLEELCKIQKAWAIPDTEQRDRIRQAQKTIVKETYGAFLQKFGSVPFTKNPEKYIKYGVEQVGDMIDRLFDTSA

Substance: Flag-tagged TC10 wild-type (in MTLn3 cells) P43L; E45V; Y46H; T49A; Y54C
- other: % invadopodia with PLA spots at core (% invadopodia) (category: core, parent: est. 23, read off a plot): 16
- other: % invadopodia with no PLA spots (none) (% invadopodia) (category: none, parent: est. 33, read off a plot): 55
- other: % invadopodia with PLA spots at side (% invadopodia) (category: side, parent: est. 44, read off a plot): 29
